Measured values: the DeepSol protein solubility set

Assay: soluble on expression in E. coli; label from the status in PepcDB or PDB records
In the case of “MVRAPIDGIVANRSAHTGSWVEGGTSLVSLVPVSELWVDANYKENQIAGMKPGMKAEIRADILKGEVFHGHIESLSPATGASFSLIPIENATGNFTKIVQRVPVRIAFDDAKELKQLLRPGLSVTVSVDER”, the “soluble on expression in E. coli” value is reported as “not soluble”. For “MGSDKIHHHHHHMIPKNIHLIFLRKDEPFPELFEKCKQEIQVNHPDWNIRLYNKDDAQDILNQDLPEYIEAYNAFYHNVQKADFLRLALVYLYGGFYMDLDMLSLKPLDELRKYNLVLGEEKIVCQAEQEALNLRYRLRIANYMFGGIPKHPFLHRIMDEMAERATIILKSQQEILDITGPGLLTDTYWDNYGMYTDITLLRNTDKRCRQPYHNEISCHFGDYAAHLHAGTWRTGI”, the “soluble on expression in E. coli” value was “not soluble”. In the case of “GSHMASFNGVSEAELLTKTLPDILTFNLDIVIIGINPGLMAAYKGHHYPGPGNHFWKCLFMSGLSEVQLNHMDDHTLPGKYGIGFTNMVERTTPGSKDLSSKEFREGGRILVQKLQKYQPRIAVFNGKCIYEIFSKEVFGVKVKNLEFGLQPHKIPDTETLCYVMPSSSARCAQFPRAQDKVHYYIKLKDLRDQLKGIERNMDV”, the “soluble on expression in E. coli” value is reported as “soluble”. For “MGSDKIHHHHHHADGNDPVENSVSTYLLEKTYGARSVTYEENNSDKLKLSELPAISLSEADHILSVLRKHTDAQEELDIQTATKGEQTWLRIVMKQTIDHKYAFTIQLNMNCYNDGSLYYGGYQAECSSSLIKWYLKGFSLATDNATKNYKFESQSYIYMKVIDNGIKYMQIPVTINGNYNPQNHDAAFSYNL”, the “soluble on expression in E. coli” value was “not soluble”. With “MIIMGLFDEVVGAFLKGDAGKYQAILSWVEEQGGIQVLLEKLQSGGLGAILSTWLSNQQGNQSVSGEQLESALGTNAVSDLGQKLGVDTSTASSLLAEQLPKIIDALSPQGEVSPQANNDLLSAGMELLKGKLFR” the “soluble on expression in E. coli” value was “not soluble”. With “MSLRTLVAGVDTSTQSCKVRVTDAETGELVRFGQAKHPNGTSVDPSYWWSAFQEAAEQAGGLDDVSALAVGGQQHGMVILDNQGNVIRDAMLWNDTSSAPQAAALIEKLGAAPAQDGEPEDPIARGKQRWVKAVGSSPVASYTLTKVAWVAENEPENVKKIAAICLPHDWLSWRIAGYGPVAEGEDAHLEALFTDRSDASGTIYYDAASNEYRRDLIAMVLEAAEGAKAAQSHAEAIVLPTVLGPRDAAPVKADPAIAGKNVEGGCLLAPGGGDNAMASLGLGMAVGDVSISLGTSGVAAAISENPTYDLTGAVSGFADCTGHYLPLACTINGSRILDAGRAALGVDYDELAKLAFASKPGANGITLVPYFDGERTPNRPNATATFSGMTLANTTRENLARAFVEGLLCSQRDCLELIRSLGASITRILLIGGGAKSEAIRTLAPSILGMDVTRPATDEYVAIGAARQAAWVLSGETEPPAWQLTIDGVETGEPTEAVYEAYAKARGEGHHHHHH” the “soluble on expression in E. coli” value was “soluble”. For “MNIRERKRKHLEACLEGEVAYQKTTTGLEGFRLRYQALAGLALSEVDLTTPFLGKTLKAPFLIGAMTGGEENGERINLALAEAAEALGVGMMLGSGRILLERPEALRSFRVRKVAPKALLIANLGLAQLRRYGRDDLLRLVEMLEADALAFHVNPLQEAVQRGDTDFRGLVERLAELLPLPFPVMVKEVGHGLSREAALALRDLPLAAVDVAGAGGTSWARVEEWVRFGEVRHPELCEIGIPTARAILEVREVLPHLPLVASGGVYTGTDGAKALALGADLLAVARPLLRPALEGAERVAAWIGDYLEELRTALFAIGARNPKEARGRVERV”, the “soluble on expression in E. coli” value was “soluble”. For “MSLTDVSRILKEARDQGRLTTLDYANLIFDDFMELHGDRHFSDDGAIVGGLAYLAGQPVTVIGIQKGKNLQDNLARNFGQPNPEGYRKALRLMKQAEKFGRPVVTFINTAGAYPGVGAEERGQGEAIAKNLMEMSDLKVPIIAIIIGEGGSGGALALAVADQVWMLENTMYAVLSPEGFASILWKDGSRATEAAELMKITAGELYKMGIVDRIIPEHGYFSSEIVDIIKANLIEQITSLQAKPLDQLLDERYQRFRKYEGHHHHHH”, the “soluble on expression in E. coli” value was “not soluble”. With “MDQAHANAASLEASDLFDADWYLAEYPDVQSLQMPPAVHYLWLGARLGRNPSPRFSTRSYLDANPDVAQAGINPLLHFLLAGRDEGRSGTILAAPSRGSTETDVNASTFGEHRPYVFLPPADLDRIAAQWSKDSARPDAQGRGIAIFSAITGSYDSINHHEHLIPGADYLLFSDAPKPRYVYQPRQAPWFDCDTVRAARFIKTHPHMLLGGYRIAVWIDGNILIRGDLLPLVQRFEESGLAFGAVPHPLRQSVYAEAVECMKRGKDDEATIRRQMQRYRREEFDCEDLIESNLLMFRLGHPSLAPLLDTWWAQIESGSRRDQLSLNYALHKTGVEWLALTQRPHSVRDHPALALMHHRSQFNPAEPGVCLPRPRERTFAEVRAERIAAQSARRADVIVCVHNAPEMVARCLDSVRTGQNPDRHRIIIIDDGSGRDTAELVSRFAADTPNTVLIRNAVAGGYTRAANQGLKAMDADMAILLNSDTVVAPGWIEKLLDAAFSNPGVGIVGPMSSAASHQSIPEHQSRHDQTAINDLPPGWSAADMDAWCERMAPADFLPRVPLVHGFCFAVTREAVERIGYLDEDSFPDGYGEENDYCLRATDAGVGLAIATHTYVFHEKSQSYQSDRRISLMKRGNGKIRELHGDERVARAVRSMQQNPHLGRLRTAAARLFAVTTPETPALEHHHHHH” the “soluble on expression in E. coli” value was “not soluble”. With “MKTPSLILMTIILCNLSIPINAQILTSRQQKEDFDTLYSLLHQVHPDLFVYQTQKEFEKKHDSIYCLLNKERNLSDFYFIVSPFVASVKDGHTNFTIPATQDRIDYLNNGGLTLPLRLKIVENKILVDFPLISCSIQENDEIICMNNINSQTILSQLYLLLGAEKGNAIKENQLTSYLSTLLWYKYNWGEKYDFTIKRGKKIWKESLNGISQADAFPVLKARLGKSLPQFVYTLSPDKQTATLQIMNLYQLPQLKQFCDSVFSVINREHVPNLVIDVRNNKGGSSAGVDMLLSYLSHDAYILYIKTDLKISSYSKRYNEQKHPETYEEIKNLPDGSLFAIRDSFVEGNRDKADIYKGSVTVLVNESTYSGASTFASAIKKSHAGKVLGETGCPTVYFGNYMSFTLPNSRLEYYISLNKFYE” the “soluble on expression in E. coli” value was “not soluble”. For “MSLSRIIVVTSGKGGVGKTTSSAAIASGLALRGKKTAVIDFDIGLRNLDLIMGCERRVVYDFVNVINGEATLNQALIKDKRNENLFILPASQTRDKDALTKDGVQRVLNDLKEMGFDFIICDSPAGIEQGALMALYYADEAIVTTNPEVSSVRDSDRILGILDSKSMRAEQGQAPIKQHLLLTRYNPARVTQGEMLSVQDVEEILHVPLLGVIPESQAVLNASNKGVPVIFDDQSDAGQAYQDTVARLLGEQVEFRFLTEAKKGIFKRLFGGEGHHHHHH”, the “soluble on expression in E. coli” value was “soluble”. For “MILLPSIRLPETAMNTDSPINRVEQVQVDDLACWRIHTAHGEALIAQQGAQLLSYQPHEQPPLVWLSDEAGYRRGQSVRGGVPVCWPWFGPLERNPQEVRGQVEDGLKAPAHGLVRAVDWKIDDIAEEDGDLCVSFRLDAPDGLPGWPHPAALRMLFRFGERLTLRLTSENLGSKPLVLSQALHTYFAVSDSREIAIEGLEGARYIETLENWEERTQHGAVRVKGELDRIYLGLERDLLIKDPRWERSIHLHALDSRSAVVWNPWVDKSRRLSQFADDAWQQMLCIETGRVWDDLMVVAPGRSESFGVQIWSEPLKRP”, the “soluble on expression in E. coli” value was “soluble”. With “MGSDKIHHHHHHMELKARAVGVEIIPKGKIIYYSVPNGDEYERGDLVLVLGDFGLEVGKVLIPPREVVIDEVGYELKAVIRKLTDEDLEQYRKNVEDALKAFQICKQKIKEHGLPMKLLYAKYTFDRTRLIFFFSAEGRVDFRELVRDLAKIFKTRIELRQVGVRDEMKFFGGLGLCGLPTCCSTFLREFTSVTLKHAKKQQMMINPAKISGPCRRLLCCLTYEYDFYEKELEGIPDEGSTITYEGKRYKVVNVNVFLRTVTLFSEQEGEMIKLPFDYFRKGE” the “soluble on expression in E. coli” value was “not soluble”. In the case of “ANKLDSKKLTRSNGTTLEYSQITDADNATKAVETLKNSIKLEGSLVVGKTTVEIKEGTVTLKREIEKDGKVKVFLNDTAGSNKKTGKWEDSTSTLTISADSKKTKDLVFLTDGTITVQQYNTAGTSLEGSASEIKNLSELKNALK”, the “soluble on expression in E. coli” value is reported as “soluble”. In the case of “MSAAEIDEGVFETTATIDNGSFGTRTIRFETGRLALQAAGAVVAYLDDDNMLLSATTASKNPKEHFDFFPLTVDVEERMYAAGRIPGSFFRREGRPSTDAILTCRLIDRPLRPSFVDGLRNEIQIVVTILSLDPGDLYDVLAINAASASTQLGGLPFSGPIGGVRVALIDGTWVGFPTVDQIERAVFDMVVAGRIVEGDVAIMMVEAEATENVVELVEGGAQAPTESVVAAGLEAAKPFIAALCTAQQELADAAGKSGKPTVDFPVFPDYGEDVYYSVSSVATDELAAALTIGGKAERDQRIDEIKTQVVQRLADTYEGREKEVGAALRALTKKLVRQRILTDHFRIDGRGITDIRALSAEVAVVPRAHGSALFERGETQILGVTTLDMIKMAQQIDSLGPETSKRYMHHYNFPPFSTGETGRVGSPKRREIGHGALAERALVPVLPSVEEFPYAIRQVSEALGSNGSTSMGSVCASTLALLNAGVPLKAPVAGIAMGLVSDDIQVEGAVDGVVERRFVTLTDILGAEDAFGDMDFKVAGTKDFVTALQLDTKLDGIPSQVLAGALEQAKDARLTILEVMAEAIDRPDEMSPYAPRVTTIKVPVDKIGEVIGPKGKVINAITEETGAQISIEDDGTVFVGATDGPSAQAAIDKINAIANPQLPTVGERFLGTVVKTTDFGAFVSLLPGRDGLVHISKLGKGKRIAKVEDVVNVGDKLRVEIADIDKRGKISLILVADEDSTAAATDAATVTS”, the “soluble on expression in E. coli” value is reported as “not soluble”. With “MKAIIISIGDELLKGHRVNTNAPFIARELGNIGIPVTRIITCSDDPQAIRDSVTLALTEAEAVFVTGGLGPTNDDRTRDAVRALLGRGLALDEPSFERIADYFRRRNRPVTEVMKDQAMVIEGSIAIPNTKGTAPGMIIECAPRFAGRHLVLMPGVPAEMEAMMRLTVVPFFAPLSGAFIRHTPVMTMGIGETQLADMIVEVEDSLPSGTTLAYLPHAAGVSLMVSTSGA” the “soluble on expression in E. coli” value was “not soluble”. For “MGSDKIHHHHHHFDGFGAVSGGGATSKLLFTYFSEKSDRKQVLESLFNKDNGLQLLKVEMGGDDQSTEGTESSHESEKGKISKNNYEFQLISEVREINPTIPICVLPWAFPGWIGNTPYDNVTETAEYVVNWLKIGRDTWNFDTFCVGVWNERNFSESYVKELRKILNLNGFNETLIVAGEGFRMDDSYSRLLDKRFINEYDIIG”, the “soluble on expression in E. coli” value was “not soluble”. In the case of “MYDVAIIGAGVIGCSIFRELTKYDLRVVVLEKEKDVSMGTSKANSAIVHAGYDPEEGTLMAKYNVKGNEMFEELCKELSVPFKRNGSLVLAFDKEDMFKVKHLYENGSKLGVKGLKILNRDEVLKMEPNLNDKIEGALYAPTGGIVGPFEYTIALAENGVTNGGKIKLKKEVVSIKKRDVFKIGTEDGETIEAKFVINAAGVYADKIHNLVCKESFKISPRSGEYFVMDKSQGNVVKHTIFQCPSKLGKGVLITPTVHGNLLVGPDARDVEDKEDVGTVFEGLDYVKEASMRSTKEVNFRESIRNFAGLRANPDTGDFIVEENDEVKGFIDVAGMKSPGLSSAPAIAVDVVNILSSAGCSLKK”, the “soluble on expression in E. coli” value is reported as “not soluble”. In the case of “MPRRALGWTAEVLKRLHGINYPITKDTLREKLAGMSIRGVPVERVIDEIEVDKFDTPRDVLHYIAEAVHKLEERGEIPTETRKGIRWAAEVLKRIHGEHFPMDKQKLKEKLAGLYWRGVPIEKVIDAMEVEQVESPADLLHQLSIAIKKLEEQGEVA”, the “soluble on expression in E. coli” value is reported as “not soluble”.
